Test results reported in the DeepSol protein solubility set.

Assay: soluble on expression in E. coli; label from the status in PepcDB or PDB records
With “MKGGDRAYTRGPSLGWLFAKCCCCFPCRDAYSHSSSENGGKSESVANLQAQPSLNSIHSSPGPKRSTNTLKKWLTSPVRRLNSGKADGNIKKQKKVRDGRKSFDLGSPKPGDETTPQGDSADEKSKKGWGEDEPDEESHTPLPPPMKIFDNDPTQDEMSSSLLAARQASTEVPTAADLVNAIEKLVKNKLSLEGSSYRGSLKDPAGCLNEGMAPPTPPKNPEEEQKAKALRGRMFVLNELVQTEKDYVKDLGIVVEGFMKRIEEKGVPEDMRGKDKIVFGNIHQIYDWHKDFFLAELEKCIQEQDRLAQLFIKHERKLHIYVWYCQNKPRSEYIVAEYDAYFEEVKQEINQRLTLSDFLIKPIQRITKYQLLLKDFLRYSEKAGLECSDIEKAVELMCLVPKRCNDMMNLGRLQGFEGTLTAQGKLLQQDTFYVIELDAGMQSRTKERRVFLFEQIVIFSELLRKGSLTPGYMFKRSIKMNYLVLEENVDNDPCKFALMNRETSERVVLQAANADIQQAWVQDINQVLETQRDFLNALQSPIEYQRKERSTAVMRSQPARLPQASPRPYSSVPAGSEKPPKGSSYNPPLPPLKISTSNGSPGFEYHQPGDKFEASKQNDLGGCNGTSSMAVIKDYYALKENEICVSQGEVVQVLAVNQQNMCLVYQPASDHSPAAEGWVPGSILAPLTKATAAESSDGSIKKSCSWHTLRMRKRAEVENTGKNEATGPRKPKDILGNKVSVKETNSSEESECDDLDPNTSMGILNPNFIQEVAPEFLVPLVDVTCLLGDTVILQCKVCGRPKPTITWKGPDQNILDTDNSSATYTVSSCDSGEITLKICNLMPQDSGIYTCIATNDHGTTSTSATVKVQGVPAAPNRPIAQERSCTSVILRWLPPSSTGNCTISGYTVEYREEGSQIWQQSVASTLDTYLVIEDLSPGCPYQFRVSASNPWGISLPSEPSEFVRLPEYDAAADGATISWKENFDSAYTELNEIGRGRFSIVKKCIHKATRKDVAVKFVSKKMKKKEQAAHEAALLQHLQHPQYITLHDTYESPTSYILILELMDDGRLLDYLMNHDELMEEKVAFYIRDIMEALQYLHNCRVAHLDIKPENLLIDLRIPVPRVKLIDLEDAVQISGHFHIHHLLGNPEFAAPEVIQGIPVSLGTDIWSIGVLTYVMLSGVSPFLDESKEETCINVCRVDFSFPHEYFCGVSNAARDFINVILQEDFRRRPTAATCLQHPWLQPHNGSYSKIPLDTSRLACFIERRKHQNDVRPIPNVKSYIVNRVNQGT” the “soluble on expression in E. coli” value was “soluble”.
In the case of “MKIAHISDLHVKCEWYEDRLGNNLVKYLNAQKPDLLIITGDLTDYGYYAEYKRAYSFLELIEVEKRVVVPGNHDARNEGYELFEEFFGTRMPYYEDEYMVIIGMDSSLPDREEGHIGRKGYKFLRETLKDKGDKLKIVALHHHVVPIPATGSDLAILTDAGNLMKVVDELGVELVLTGHKHKAWVWKLNETYYVTAGTATTRRLKAKDYPSFYMLYLEDEKNIRMEKVNTETLKVEEVYTLNFEEGKER”, the “soluble on expression in E. coli” value is reported as “not soluble”.
In the case of “MKIAIEGCMHGDLDNVYKTIQHYEQIHNTKVDLLLCCGDFQAVRNEKDMDSLNVPRKYREMKSFWKYYSGQEVAPIPTIFIGGNHEASNYLWELYYGGWAATNIYFLGFAGVVKFGNVRIGGLSGIYNERHYRSGHFERPPYNESTIRSVYHVRDYDVQKLMQLEEPLDIFLSHDWPVGITDYGDSESLMRQKPYFRQEIEEKTLGSKPAALLLEKLKPQYWFSAHLHCKFAAAVQHGNDGSVTKFLALDKCLPGKKFLQIIEIESEPGPFEVLYDEEWLAITRKFNSIFPLTRRYTNVRYTIPNKLPTKKWERTDIPASLAPSDTYSVKLFIYSFYLPIVMKLHQAPMTEMFSAVSRIKHVLLCIADLPTYDSEEIPIDDIDEIEEMEEAKADDHTRDDA”, the “soluble on expression in E. coli” value is reported as “soluble”.
For “MKIAITGATGFVGQRLVERLQAEGHELRILSQRPTVAQQLTGCQVFDTATETSWLAALEGADAVVNLAGEPIAEQRWTPAQKQRLKNSRVQTTRALVTAITAATQKPQVLVTASAIGYYGTSETAQFTEESAAGQDYLAEICQAWEQEAQAVTVSGTRLVTLRIGIVVGPGGAIGKMLGPFKLFAGGPIGSGRQWVSWIQREDLVSLILEAIANPSYQGTYNATAPQAVRMADLSATLGEVLQRPSWLPVPAFALEALLGEGALLVLEGQQVLPKRLEAAGFQFRYPDLKSALQQFLPLEHHHHHH”, the “soluble on expression in E. coli” value was “not soluble”.
For “MKIATYNVRVDTEYDQDWQWSFRKEAVCQLINFHDWSLCCIQEVRPNQVRDLKAYTTFTCLSAEREGDGQGEGLAILYNEQKVQAIDTGYFWLSETPQQPSIHPEAGCPRIALWGLFKETTQNTPFLVINVHLDHISAHARLAGMTVILEELHDKIAQYPTLLMGDFNAESGEEVHQLVQKKFQDSKNLATHYGPRGTFQNFTYTKPWAELEEIDYIYVKGWQVQQTASLTDSIDGRFPSDHFPLEAEVAGENLYFQ”, the “soluble on expression in E. coli” value was “soluble”.
With “MKIEEGKVVIWHAMQPNELEVFQSLAEEYMALCPEVEIVFEQKPNLEDALKAAIPTGQGPDLFIWAHDWIGKFAEAGLLEPIDEYVTEDLLNEFAPMAQDAMQYKGHYYALPFAAETVAIIYNKEMVSEPPKTFDEMKAIMEKYYDPANEKYGIAWPINAYFISAIAQAFGGYYFDDKTEQPGLDKPETIEGFKFFFTEIWPYMAPTGDYNTQQSIFLEGRAPMMVNGPWSINDVKKAGINFGVVPLPPIIKDGKEYWPRPYGGVKLIYFAAGIKNKDAAWKFAKWLTTSEESIKTLALELGYIPVLTKVLDDPEIKNDPVIYGFGQAVQHAYLMPKSPKMSAVWGGVDGAINEILQDPQNADIEGILKKYQQEILNNMQG” the “soluble on expression in E. coli” value was “soluble”.
For “MKIEEVRFGLVKIDGKEFDHDIVIYPSGRIERRMKEISKKKHGTSHKLDPEELEKYLVEDFDVLLVGTGIYGMLSLLPESKKLVEDKEVIEKPTKEALKLLEELWGKKRILAIIHVTC”, the “soluble on expression in E. coli” value was “soluble”.
With “MKIFIVGSTGRVGKSLLKSLSTTDYQIYAGARKVEQVPQYNNVKAVHFDVDWTPEEMAKQLHGMDAIINVSGSGGKSLLKVDLYGAVKLMQAAEKAEVKRFILLSTIFSLQPEKWIGAGFDALKDYYIAKHFADLYLTKETNLDYTIIQPGALTEEEATGLIDINDEVSASNTIGDVADTIKELVMTDHSIGKVISMHNGKTAIKEALESLLEHHHHHH” the “soluble on expression in E. coli” value was “soluble”.
For “MKIGFIGVGKMASAIITGLKKTDFELIISDSSLKAGQDKAEALGVAVAQSHQELVDEVDLLVLGVKPQVLASVLNPLILTKPILSMAAGTSLEYLDKLSQADLPIIRIMPNLNAKILQSSTAICRNDKVSDQLFAIAKQITDSFGTTFEIAEKDFDTFTALAGSSPAYIALFIEAMSKAGLKHGFPKDLAFKIVSQTVLATTSNLIQGQEKPNDLIDKVSSPGGTTIAGLLDLEKTGFTASTISAIDATIDKSKNMLEHHHHHH”, the “soluble on expression in E. coli” value was “not soluble”.
With “MKIGVFDSGVGGLSVLKSLYEARLFDEIIYYGDTARVPYGVKDKDTIIKFCLEALDFFEQFQIDMLIIACNTASAYALDALRAKAHFPVYGVIDAGVEATIKALHDKNKEILVIATKATIKSEEYQKRLLSQGYTNINALATGLFVPMVEEGIFEGDFLQSAMEYYFKNITTPDALILACTHFPLLGRSLSKYFGDKTKLIHSGDAIVEFLKERENIDLKNHKAKLHFYASSDVESLKNTAKIWLNLLRK” the “soluble on expression in E. coli” value was “not soluble”.
With “MKIGYLGPRGTFTEMAVQTLFDDKNVLKPYRTIPDCMDSVANGDMDAAVVPVENAIEGSVNVTLDYLIHKQRLEIVADIVVPISQHFLVHPNQRDNEIKKILSHPHAVAQCHEFLRSSYPGVEIEYMTSTAAAAQWVADHPNEPVAAIANEQAATSYQLDMLEKDIHDYDENRTRFAVLAKGKLSLPPYQVEPYTKKTTMMVTLSSDFSGALHQVLSAFAWRKLNLTKIESRPMKTGLGNYFFIIDVDCEADDVLIPGVMQELEALGCGVELLGSYPCFFHTSLKLTEASSV” the “soluble on expression in E. coli” value was “not soluble”.
With “MKIIGFACQWCAYQAADLAGSLKMKYPESIRLLRVPCSGRVNAEFILKALLSGADGVFVAGCPISECHYRSGNRIAKTKVALLKRLLPEFGLESGRVEFLQVSSADARKFVEFAKEFDERIRKLGPNPLRRDER” the “soluble on expression in E. coli” value was “not soluble”.
For “MKIIGSMGKKTENLKIDAKKSFLKRIAKNVKVSEGERAVEDILRCIYRNQPISTKKIGQYVKLPLPIVSKVRSILERESLLKRDDKGAVLSKKGIDFVENELGLKLKSDMKCPVCSGRNIVFDEKFEKILKKHKTYAKLRPQVNTMIDQSFATPETATARAAIMADRGDLEGKRVLFVGDDDLASIPTAMTGLCSEVVVLDIDDRLLKLISEVSKKENLNIRTVKWDFKNELPSEFVNKFDTIFTDPPYTLNGAVLFMSRGIEALGDNGILYLAFSHKPVEEYIELQKSINNMNFLIYELIPGFNFYEGTEIIGNTTFLARLVGKNLKKIEVNSEKIYTGELKPTLRYYQCMNCKKIHEVGNKVKRIEDLTCECGGKKFSMIKRAKVKQK”, the “soluble on expression in E. coli” value was “not soluble”.
In the case of “MKIIITGEPGVGKTTLVKKIVERLGKRAIGFWTEEVRDPETKKRTGFRIITTEGKKKIFSSKFFTSKKLVGSYGVNVQYFEELAIPILERAYREAKKDRRKVIIIDEIGKMELFSKKFRDLVRQIMHDPNVNVVATIPIRDVHPLVKEIRRLPGAVLIELTPENRDVILEDILSLLERLEHHHHHH”, the “soluble on expression in E. coli” value is reported as “not soluble”.
With “MKILLYFEGEKILAKSGIGRALDHQKRALSEVGIEYTLDADCSDYDILHINTYGVNSHRMVRKARKLGKKVIYHAHSTEEDFRNSFIGSNQLAPLVKKYLISLYSKADHLITPTPYSKTLLEGYGIKVPISAISNGIDLSRFYPSEEKEQKFREYFKIDEEKKVIICVGLFFERKGITDFIEVARQLPEYQFIWFGDTPMYSIPKNIRQLVKEDHPENVIFPGYIKGDVIEGAYAAANLFFFPSREETEGIVVLEALASQQQVLVRDIPVYQGWLVANENCYMGHSIEEFKKYIEGLLEGKIPSTREAGYQVAEQRSIKQIGYELKEVYETVLS” the “soluble on expression in E. coli” value was “not soluble”.
With “MKILPLALFIIPFLAGCGANNTPPQTPIPGEKTSAKLRTLETGAAAIQSRPPVDAISTYLDGFHFYSGDKNGQMEAHHYVTVLNEDVMQAVIYDGNTKNARLMGVEYIISERLFKTLPPEEKKLWHSHQYEVKSGSLVAPGLPQVADKALMSKIVNTYGKTWHTWHTDRDKTLPMGIPALMMGFTGDGQLDPALLADRDRRLGIDTQAIKRERQDLPEHPVVKGANAWEQGEVIQLQRVQGSGEHGRGDTAHFGTSEQSRQ” the “soluble on expression in E. coli” value was “not soluble”.
With “MKILWIDLNSSYAHSSLALPALHAQIMTDPSIEWEIVSATINENTGMIVDEIYRHRPDILAATTWLFNHEQLMHVASRVKALLPEACLVLGGPEFLGDNEEFLRKNPFVDCVFRGEGEEVFPQWLTCWNHPEQWHTVPGLCYLTPNKEYKDNGIARVLNFAGLVPPEQSRFFNWSKPFVQLETTRGCFNTCAFCVSGGEKPVRTLSIESIRERLQLIHAHGIKNVRVLDRTFNYNPRRAKELLRLFLEFHPDIRFHLEIHPALLSEELKEELSLLPKGLLHLEAGIQSLREPVLEKSRRMGKLSDALDGLRFLCALPNMETHADLIAGLPLYHLHEIFEDVRTLAGYAAGEIQLESLKLLPGTEMRRRAEELGIKYSPLPPYEVLQTHEISVSELQTARQLSRLLDGFYNTPAWQALTRELILNDEQFLHRFLAYLTKANLIDQPMSLEKRGLILYEFCKQNYPEYQIQAAIAWIEAGMSLKKLPAEKVWTKRQIPPATWNIIYGEYKESLRLCFLPADEKGEHGYWFGFESEIQKASPVFKART” the “soluble on expression in E. coli” value was “not soluble”.
In the case of “MKIMIIGATGMAGQALVTTALNRGHQVVAVARSAEKLATLPSNPNLTSIVRDAFNLTTTDLSAVDAVVDAFATAPDHAYLHVDLATHLISQLRETTTPRVAFILGAGSLTTGDDAHLFVHDLEQDPHAASFISVPQNQLKELTFLRDVDNVNWFGVSPAADFHPGEAQPALLGTDTLLFNDQQQSGTSAGTMAVAILDELENPKHHQTRFTVADKLEHHHHHH”, the “soluble on expression in E. coli” value is reported as “soluble”.
